Test results reported in US20170008928A1, “NOVEL PEPTIDES AND PEPTIDE DERIVATIVES AND USES THEREOF” (Novo Nordisk A/S, priority 2015, published 2017).
Starred links: 1 amine or outer side, 2 acyl side, 3 side chain; linkers in the order of their positions; H or OH if unused. Non-standard residues stand in square brackets, D forms with d. No end group written: not given here. *: point of attachment. Phe(4-CH2SO3H) = N[C@@H](Cc1ccc(CS(=O)(=O)O)cc1)C(=O)O; C20 diacid = O=C(O)CCCCCCCCCCCCCCCCCCC(=O)*; sY = N[C@@H](Cc1ccc(OS(=O)(=O)O)cc1)C(=O)O; C18 diacid = O=C(O)CCCCCCCCCCCCCCCCC(=O)*; γGlu = O=C(O)[C@H](CCC(=O)[*:2])N[*:1]; βAsp = O=C(O)[C@H](CC(=O)[*:2])N[*:1]; NMeF = CN[C@@H](Cc1ccccc1)C(=O)O; dNMeD = CN[C@H](CC(=O)O)C(=O)O; Nle = CCCC[C@H](N)C(=O)O; AEEA = NCCOCCOCC(=O)O

T1: human cholecystokinin-2 receptor (human, UniProt P32239 1-447)
T1 sequence (looked up): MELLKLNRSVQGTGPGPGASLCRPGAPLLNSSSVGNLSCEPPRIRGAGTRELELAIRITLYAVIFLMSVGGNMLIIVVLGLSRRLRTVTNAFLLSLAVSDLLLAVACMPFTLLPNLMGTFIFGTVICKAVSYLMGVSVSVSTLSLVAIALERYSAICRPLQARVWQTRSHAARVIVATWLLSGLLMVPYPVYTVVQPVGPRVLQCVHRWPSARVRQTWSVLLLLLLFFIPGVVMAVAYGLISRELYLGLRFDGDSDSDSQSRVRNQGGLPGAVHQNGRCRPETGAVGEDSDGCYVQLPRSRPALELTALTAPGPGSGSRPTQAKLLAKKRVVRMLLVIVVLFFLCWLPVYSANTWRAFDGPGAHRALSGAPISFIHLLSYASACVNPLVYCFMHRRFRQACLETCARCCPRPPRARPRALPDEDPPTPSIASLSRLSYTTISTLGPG

T2: human cholecystokinin-1 receptor (human, UniProt P32238 1-428)
T2 construct: whole, on cells; also called CCK-1R; CCK-1 receptor
T2 sequence (looked up): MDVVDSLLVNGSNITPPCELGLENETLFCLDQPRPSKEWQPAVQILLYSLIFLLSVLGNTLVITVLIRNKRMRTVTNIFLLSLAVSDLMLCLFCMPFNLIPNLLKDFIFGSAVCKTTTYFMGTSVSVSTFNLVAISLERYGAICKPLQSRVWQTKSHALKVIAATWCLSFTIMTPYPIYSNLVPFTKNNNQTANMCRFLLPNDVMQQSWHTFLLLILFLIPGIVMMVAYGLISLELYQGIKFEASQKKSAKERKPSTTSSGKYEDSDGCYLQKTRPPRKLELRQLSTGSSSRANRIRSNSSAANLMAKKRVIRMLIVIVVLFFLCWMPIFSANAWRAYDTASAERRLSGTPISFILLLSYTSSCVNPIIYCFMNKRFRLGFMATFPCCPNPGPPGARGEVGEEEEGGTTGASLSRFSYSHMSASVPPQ

B1: bAsp-Phe(4-sulfomethyl)-Nle-Gly-Trp-Nle-DMeAsp-MePhe-amide (peptide)
peptide: [βAsp][Phe(4-CH2SO3H)][Nle]GW[Nle][dNMeD][NMeF]-NH2
modifications: N-terminus assumed
SMILES: CCCC[C@H](NC(=O)[C@H](Cc1ccc(CS(=O)(=O)O)cc1)NC(=O)C[C@H](N)C(=O)O)C(=O)NCC(=O)N[C@@H](Cc1c[nH]c2ccccc12)C(=O)N[C@@H](CCCC)C(=O)N(C)[C@H](CC(=O)O)C(=O)N(C)[C@@H](Cc1ccccc1)C(N)=O
notes: X = Nle or Nal
B2: 17-Carboxyheptadecanoyl-Gly-Ser-Ser-Gly-Ser-Ser-Asp-sTyr-Leu-Gly-Trp-Nle-DMeAsp-MePhe-amide (peptide)
peptide: {C18 diacid}-GSSGSSD[sY]LGW[Nle][dNMeD][NMeF]-NH2
SMILES: CCCC[C@H](NC(=O)[C@H](Cc1c[nH]c2ccccc12)NC(=O)CNC(=O)[C@H](CC(C)C)NC(=O)[C@H](Cc1ccc(OS(=O)(=O)O)cc1)NC(=O)[C@H](CC(=O)O)NC(=O)[C@H](CO)NC(=O)[C@H](CO)NC(=O)CNC(=O)[C@H](CO)NC(=O)[C@H](CO)NC(=O)CNC(=O)CCCCCCCCCCCCCCCCC(=O)O)C(=O)N(C)[C@H](CC(=O)O)C(=O)N(C)[C@@H](Cc1ccccc1)C(N)=O
notes: X = Nle or Nal; The Gly-Ser-Ser-Gly-Ser-Ser linker is written as part of the chain
B3: 2-[2-[2-[[2-[2-[2-[[(4S)-4-Carboxy-4-(17-carboxyheptadecanoylamino)butanoyl]amino]ethoxy]ethoxy]acetyl]amino]ethoxy]ethoxy]acetyl-Glu-sTyr-Leu-Gly-Trp-Nle-DMeAs … (peptide)
peptide: {C18 diacid-γGlu-AEEA-AEEA}-E[sY]LGW[Nle][dNMeD]F-NH2
SMILES: CCCC[C@H](NC(=O)[C@H](Cc1c[nH]c2ccccc12)NC(=O)CNC(=O)[C@H](CC(C)C)NC(=O)[C@H](Cc1ccc(OS(=O)(=O)O)cc1)NC(=O)[C@H](CCC(=O)O)NC(=O)COCCOCCNC(=O)COCCOCCNC(=O)CC[C@H](NC(=O)CCCCCCCCCCCCCCCCC(=O)O)C(=O)O)C(=O)N(C)[C@H](CC(=O)O)C(=O)N[C@@H](Cc1ccccc1)C(N)=O
notes: X = Nle or Nal
B4: 2-[2-[2-[[2-[2-[2-[[(4S)-4-Carboxy-4-(19-carboxynonadecanoylamino)butanoyl]amino]ethoxy]ethoxy]acetyl]amino]ethoxy]ethoxy]acetyl-Glu-sTyr-Leu-Gly-Trp-Nle-DMeAsp … (peptide)
peptide: {C20 diacid-γGlu-AEEA-AEEA}-E[sY]LGW[Nle][dNMeD][NMeF]-NH2
SMILES: CCCC[C@H](NC(=O)[C@H](Cc1c[nH]c2ccccc12)NC(=O)CNC(=O)[C@H](CC(C)C)NC(=O)[C@H](Cc1ccc(OS(=O)(=O)O)cc1)NC(=O)[C@H](CCC(=O)O)NC(=O)COCCOCCNC(=O)COCCOCCNC(=O)CC[C@H](NC(=O)CCCCCCCCCCCCCCCCCCC(=O)O)C(=O)O)C(=O)N(C)[C@H](CC(=O)O)C(=O)N(C)[C@@H](Cc1ccccc1)C(N)=O
notes: X = Nle or Nal

Experiments:
[1] = target: T1, human cholecystokinin-2 receptor; assay: cell-based or functional assay
[2] = target: T2, human cholecystokinin-1 receptor; assay: SPA competition vs [125I]-CCK-8s, membranes
Description: (§1) CCK receptor binding assays were performed in 96-well Optiplates (Cat #6005290, PerkinElmer, Waltham, Mass., USA) in a total volume of 200 μl per well.
(§2) The plates were sealed and incubated in the dark at +22° C. for 2 hours on a IKA MTS plate shaker (IKA-Werke D-79219 Staufen) set at 300 rpm and thereafter centrifuged at 1500 rpm for 10 minutes in a Heraeus Multifuge 3s centrifuge. SPA bead light emission was measured in a TopCount NXT (PerkinElmer) for 2 min/well after a delay of 60 min.

[3] = target: T2, human cholecystokinin-1 receptor; assay: cell-based or functional assay
[4] = target: T1, human cholecystokinin-2 receptor; assay: SPA competition vs [125I]-CCK-8s, membranes
Description: as §1, §2

| Binder | EC50 (CCK-2R) [1] [nM] | IC50 [2] [nM] | EC50 (CCK-1R) [3] [nM] | IC50 [4] [nM] |
| --- | --- | --- | --- | --- |
| E[sY]LGWQ[dNMeD][NMeF]-NH2 [Glu-sTyr-Leu-Gly-Trp-Gln-DMeAsp-MePhe-amide] | > 1000 | 0.085 | – | – |
| {C18 diacid-γGlu-AEEA-AEEA}-[dD][Phe(4-CH2SO3H)][Nle]GW[Nle][dNMeD][NMeF]-NH2 (X = Nle or Nal) | – | 0.072 | 0.37 | – |
| B1 | > 1000 | – | 0.19 | 2900 |
| B2 | 17 | – | 0.61 | 370 |
| {C18 diacid-γGlu-AEEA-AEEA}-[dE][sY]LGW[Nle][dNMeD][NMeF]-NH2 (X = Nle or Nal) | 46 | – | – | 700 |
| B3 | 94 | – | 0.37 | 480 |
| {C18 diacid-γGlu-AEEA-AEEA}-E[sY]LGW[Nle][dNMeD][NMeF]-NH2 (X = Nle or Nal) | 62 | – | – | 2400 |
| D[sY]RGW[Nle][dNMeD][NMeF]-NH2 (X = Nle or Nal) [Asp-sTyr-Arg-Gly-Trp-Nle-DMeAsp-MePhe-amide] | 910 | – | – | 1500 |
| B4 | 32 | – | – | 430 |
| {C18 diacid-γGlu-AEEA-AEEA}-D[Phe(4-CH2SO3H)][Nle]GW[Nle][dNMeD][NMeF]-NH2 (X = Nle or Nal) | – | 0.26 | – | – |
| EGPWLEEEEEAYGWMDF (N-terminal pyroglutamic acid (pE, Pyr); C-terminal amide; Tyr non-sulfated) | – | 340 | 530 | – |
